Data on 3 substances can be found in PMC4231766.

As usually defined, the Kd is the free concentration of one partner at which half of the binding sites on the other are occupied at equilibrium, for simple one-to-one binding. A high value points to weaker binding.

In this series the test system is 340R WT (MBP fusion) (Invertebrate iridescent virus 6 (IIV-6)). The series can be described thus: EMSA. To be noted: EMSA 1 h at room temperature, 5 ng long dsRNA or 1 nM siRNA/19-nt dsRNA; 6% or 12% native PAGE; binding buffer not given (as ref 11); protein dialysis/storage …. A general note: A gel shift assay detects complexes by their altered migration in electrophoresis.
The substance 19-nt blunt dsRNA showed a Kd of 1.17 µM.
In the case of 21-nt siRNA duplex it was 0.718 µM.
126-nt long dsRNA gave a dissociation constant Kd of 0.139 µM.
